In patent US20200087400A1 (EUREKA THERAPEUTICS, published 2020):

B1: PSA146/HLA-A*02:01-specific scFv phage clone #13 (scFv, V domains shown)
VH: QVQLVQSGAEVKKPGASVKVSCKASGYTFTSYYMHWVRQAPGQGLEWMGGFDPEDGETIYAQKFQGRVTMTEDTSTDTAYMGLSSLRSEDTAVYYCARYSYDYWGQGTLVTVSS
VL: QAVVTQEPSLTVSPGGTVTLTCASSTGAVTSGYYPNWFQQKPGQAPRALIYSTSNKHSWTPARFSGSLLGGKAALTLSGVQPEDEAEYYCLLYYGGAYVFGTGTKVTVLG
B2: PSA146/HLA-A*02:01-specific scFv phage clone #10 (scFv, V domains shown)
VH: QVQLVQSGAEVKKPGSSVKVSCKASGGTFSSYAISWVRQAPGQGLEWMGWINPNSGGTNYAQKFQGRVTMTRDTSISTAYMELSRLRSDDTAVYYCARWSYYYFQQFWSLDGWGQGTLVTVSS
VL: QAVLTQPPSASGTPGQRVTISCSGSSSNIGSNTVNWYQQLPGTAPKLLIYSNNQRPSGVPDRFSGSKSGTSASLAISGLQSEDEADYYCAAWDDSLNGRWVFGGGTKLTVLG
B3: PSA146/HLA-A*02:01-specific scFv phage clone #12 (scFv, V domains shown)
VH: QMQLVQSGSEVKKPGASVKVSCKASGYTFTSYGISWVRQAPGQGLEWMGWISAYNGNTDYVQKLQGRVTMTTDTSTNTAYMELGSLGSDDTAVYYCARTNYNKYDIWGQGTLVTVSS
VL: QSVLTQPPSVSGAPGQRVTISCTGSSSNIGAGYDVHWYQQLPGTAPKLLIYGNSNRPSGVPDRFSGSKSGTSASLAITGLQAEDEADYYCQSYDSSLSEVFGTGTKVTVLG
B4: PSA146/HLA-A*02:01-specific scFv phage clone #9 (scFv, V domains shown)
VH: QVQLVQSGAEVKKPGASVKVSCKASGYTFTSYGISWVRQAPGQGLEWMGWISAYNGNTNYAQKLQGRVTMTTDTSTSTAYMELRSLRSDDTAVYYCARSSQYYVWDSWGQGTLVTVSS
VL: QSVVTQPPSVSGAPGQRVTISCTGSSSNFGAGYDVHWYQQLPGTAPKLLIYGNSNRPSGVPDRFSGSKSGTSASLAITGLQAEDEADYYCQSYDSSLSGWVFGGGTKLTVLG

Columns and labels:
[1] = biological target: T1, control peptide A2E-1/HLA-A*02:01 complex on T2 cells (member of the P19 mixture) (human); experiment: flow cytometry, phage on T2 cells
T1 construct: Loaded on T2 cells as part of the mixture of 19 control peptides
Outline: (§1)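 Cells were loaded with peptides and β2M, stained sequentially with purified phage clones, mouse anti-M13 and R-PE anti-mouse IgG (30-60 min each, on ice, washed twice between), then analysed by flow cytometry. Clones came from panning pools enriched against PSA146/HLA-A*02:01.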

[2] = biological target: T2, control peptide A2E-2/HLA-A*02:01 complex on T2 cells (member of the P19 mixture) (human); experiment: flow cytometry, phage on T2 cells
T2 construct: Loaded on T2 cells as part of the mixture of 19 control peptides
Outline: as §1

[3] = biological target: T3, control peptide A2E-3/HLA-A*02:01 complex on T2 cells (member of the P19 mixture) (human); experiment: flow cytometry, phage on T2 cells
T3 construct: Loaded on T2 cells as part of the mixture of 19 control peptides
Outline: as §1

[4] = biological target: T4, control peptide A2E-4/HLA-A*02:01 complex on T2 cells (member of the P19 mixture) (human); experiment: flow cytometry, phage on T2 cells
T4 construct: Loaded on T2 cells as part of the mixture of 19 control peptides
Outline: as §1

[5] = biological target: T5, control peptide A2E-5/HLA-A*02:01 complex on T2 cells (member of the P19 mixture) (human); experiment: flow cytometry, phage on T2 cells
T5 construct: Loaded on T2 cells as part of the mixture of 19 control peptides
Outline: as §1

[6] = biological target: T6, control peptide A2E-6/HLA-A*02:01 complex on T2 cells (member of the P19 mixture) (human); experiment: flow cytometry, phage on T2 cells
T6 construct: Loaded on T2 cells as part of the mixture of 19 control peptides
Outline: as §1

[7] = biological target: T7, control peptide A2E-7/HLA-A*02:01 complex on T2 cells (member of the P19 mixture) (human); experiment: flow cytometry, phage on T2 cells
T7 construct: Loaded on T2 cells as part of the mixture of 19 control peptides
Outline: as §1

[8] = biological target: T8, control peptide A2E-8/HLA-A*02:01 complex on T2 cells (member of the P19 mixture) (human); experiment: flow cytometry, phage on T2 cells
T8 construct: Loaded on T2 cells as part of the mixture of 19 control peptides
Outline: as §1

[9] = biological target: T9, control peptide A2E-9/HLA-A*02:01 complex on T2 cells (member of the P19 mixture) (human); experiment: flow cytometry, phage on T2 cells
T9 construct: Loaded on T2 cells as part of the mixture of 19 control peptides
Outline: as §1

[10] = biological target: T10, control peptide A2E-10/HLA-A*02:01 complex on T2 cells (member of the P19 mixture) (human); experiment: flow cytometry, phage on T2 cells
T10 construct: Loaded on T2 cells as part of the mixture of 19 control peptides
Outline: as §1

[11] = biological target: T11, control peptide A2E-11/HLA-A*02:01 complex on T2 cells (member of the P19 mixture) (human); experiment: flow cytometry, phage on T2 cells
T11 construct: Loaded on T2 cells as part of the mixture of 19 control peptides
Outline: as §1

[12] = biological target: T12, control peptide A2E-13/HLA-A*02:01 complex on T2 cells (member of the P19 mixture) (human); experiment: flow cytometry, phage on T2 cells
T12 construct: Loaded on T2 cells as part of the mixture of 19 control peptides
Outline: as §1

[13] = biological target: T13, control peptide A2E-14/HLA-A*02:01 complex on T2 cells (member of the P19 mixture) (human); experiment: flow cytometry, phage on T2 cells
T13 construct: Loaded on T2 cells as part of the mixture of 19 control peptides
Outline: as §1

[14] = biological target: T14, control peptide A2E-15/HLA-A*02:01 complex on T2 cells (member of the P19 mixture) (human); experiment: flow cytometry, phage on T2 cells
T14 construct: Loaded on T2 cells as part of the mixture of 19 control peptides
Outline: as §1

[15] = biological target: T15, control peptide A2E-16/HLA-A*02:01 complex on T2 cells (member of the P19 mixture) (human); experiment: flow cytometry, phage on T2 cells
T15 construct: Loaded on T2 cells as part of the mixture of 19 control peptides
Outline: as §1

[16] = biological target: T16, control peptide A2E-17/HLA-A*02:01 complex on T2 cells (member of the P19 mixture) (human); experiment: flow cytometry, phage on T2 cells
T16 construct: Loaded on T2 cells as part of the mixture of 19 control peptides
Outline: as §1

[17] = biological target: T17, control peptide A2E-21/HLA-A*02:01 complex on T2 cells (member of the P19 mixture) (human); experiment: flow cytometry, phage on T2 cells
T17 construct: Loaded on T2 cells as part of the mixture of 19 control peptides
Outline: as §1

[18] = biological target: T18, control peptide A2E-23/HLA-A*02:01 complex on T2 cells (member of the P19 mixture) (human); experiment: flow cytometry, phage on T2 cells
T18 construct: Loaded on T2 cells as part of the mixture of 19 control peptides
Outline: as §1

Bio-P19 member A2E-23 = biological target: T19, Bio-P19 member A2E-23 (chain 2 carries a C-terminal BirA substrate peptide (BSP), enzymatically biotinylated; the BSP letters are not given in the patent and are left out); experiment: phage ELISA, streptavidin plate, anti-M13-HRP
T19 construct: also called biotinylated control peptide A2E-23/HLA-A*02:01 monomer
Outline: (§2)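 ELISA: clones incubated on streptavidin-captured biotinylated peptide/HLA-A*02:01 complex, detected by HRP-conjugated anti-M13 with absorbance at 450 nm. FACS: T2 cells, unloaded or peptide-loaded with β2M, stained sequentially on ice (30–60 min per step) with scFv phage, anti-M13 and R-PE anti-mouse IgG.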

Bio-P19 member A2E-2 = biological target: T20, Bio-P19 member A2E-2 (chain 2 carries a C-terminal BirA substrate peptide (BSP), enzymatically biotinylated; the BSP letters are not given in the patent and are left out); experiment: phage ELISA, streptavidin plate, anti-M13-HRP
T20 construct: also called biotinylated control peptide A2E-2/HLA-A*02:01 monomer
Outline: as §2

Bio-P19 member A2E-3 = biological target: T21, Bio-P19 member A2E-3 (chain 2 carries a C-terminal BirA substrate peptide (BSP), enzymatically biotinylated; the BSP letters are not given in the patent and are left out); experiment: phage ELISA, streptavidin plate, anti-M13-HRP
T21 construct: also called biotinylated control peptide A2E-3/HLA-A*02:01 monomer
Outline: as §2

[19] = biological target: T22, PSA 146-154 peptide/HLA-A*02:01 complex on the cell surface (human); experiment: flow cytometry, phage on T2 cells, anti-M13 + R-PE anti-mouse IgG
T22 construct: also called PSA146/HLA-A*02:01; PSA146-loaded T2 cells
Description: (§3) Individual phage clones from enriched phage display panning pools against PSA146/HLA-A*02:01 complex were incubated in the coated plates. Binding of the phage clones was detected by HRP-conjugated anti-M13 antibodies and developed using HRP substrate. The absorbance was read at 450 nm. […] Then, unique antibody clones were identified through DNA sequencing of ELISA-positive clones. […] T2 cells loaded with different peptides and β2M were first stained with purified scFv phage clones, followed by staining with a mouse anti-M13 mAb, and finally R-PE conjugated horse anti-mouse IgG from Vector Labs. Each step of the staining was performed for between 30-60 minutes on ice and the cells were washed twice between stainings. All 16 clones recognized PSA146-loaded T2 cells specifically. FIG. 3 provides examples of PSA146/HLA-A*02:01 specific phage clone binding to peptide-loaded T2 cells through FACS.

[20] = biological target: T23, HLA-A*02:01 on T2 cells with no peptide loaded (human); experiment: as above
T23 construct: TAP-deficient T2 cells, no peptide loaded from outside; also called T2 cells without peptide loading
Description: as §3

Binder	binding result [1]	binding result [2]	binding result [3]	binding result [4]	binding result [5]	binding result [6]	binding result [7]	binding result [8]	binding result [9]	binding result [10]	binding result [11]	binding result [12]	binding result [13]	binding result [14]	binding result [15]	binding result [16]	binding result [17]	binding result [18]	binding result (Bio-P19 member A2E-23)	binding result (Bio-P19 member A2E-2)	also measured
B1	no binding	no binding	no binding	no binding	no binding	no binding	no binding	no binding	no binding	no binding	no binding	no binding	no binding	no binding	no binding	no binding	no binding	no binding	no binding	no binding	binding result (Bio-P19 member A2E-3): no binding; binding result [19]: binds; binding result [20]: no binding
B2	no binding	no binding	no binding	no binding	no binding	no binding	no binding	no binding	no binding	no binding	no binding	no binding	no binding	no binding	no binding	no binding	no binding	no binding	no binding	no binding	binding result (Bio-P19 member A2E-3): no binding; binding result [19]: binds; binding result [20]: no binding
B3	no binding	no binding	no binding	no binding	no binding	no binding	no binding	no binding	no binding	no binding	no binding	no binding	no binding	no binding	no binding	no binding	no binding	no binding	no binding	no binding	binding result (Bio-P19 member A2E-3): no binding; binding result [19]: binds; binding result [20]: no binding
B4	no binding	no binding	no binding	no binding	no binding	no binding	no binding	no binding	no binding	no binding	no binding	no binding	no binding	no binding	no binding	no binding	no binding	no binding	no binding	no binding	binding result (Bio-P19 member A2E-3): no binding; binding result [19]: binds; binding result [20]: no binding
